Reference: patent publication US11833215B2, “CKIT antibody drug conjugates” (Novartis AG, priority 2014, dated 2023)
“Also recorded” adds a separate entry of the source.

How the values were obtained:
[1] = system: cKIT on normal human CD34+ bone marrow cells; assay: cKIT receptor internalization on bone marrow cells by flow cytometry; type: cell-based; settings: 10 μg/ml, 37° C.
Method: In another internalization experiment, the impact of NEG085 on cKIT receptor levels was evaluated on human bone marrow cells. Normal human CD34+ bone marrow cells (All Cells, Cat #ABM022F, Emeryville, CA) were thawed and washed with 10 mL of StemPro®-34 SFM medium (Gibco, Life Technologies, Carlsbad, CA). Cells were resuspended in 1.25 mL of StemPro-34 SFM medium at 4×10^5 cells/mL and split equally into two tubes. One tube was untreated, and the other was treated with 10 μg/ml of NEG085 and both were incubated at 37° C., 5% CO2. 100 μL of cell suspension was collected at each timepoint (0, 15, 30, 60, 120, and 240 min) from each condition, and placed into an ice cold collection tube to cease internalization. Cells were washed with 3 mL of ice-cold FBS stain buffer and resuspended in 100 μL of FBS stain buffer. […] of 104D2-BV421 (mouse anti-human IgG1 k, Biolegend, San Diego CA) was added to each tube and incubated on ice for 1 hour. Following another wash with FBS stain buffer, total cKIT receptors were measured by flow cytometry by assessing the mean fluorescence intensity of BV421 on a FACS Canto II® (BD Biosciences, San Jose, CA).

[2] = system: primary human mast cells; assay: mast cell apoptosis (Caspase-Glo 3/7); type: cell-based; settings: 0.05-100 nM, 1.6 nM rhSCF, 48 h
Method: Primary human mast cells were cultured from peripheral human blood according to the methods described by Saito et al., Nature Protocols 2006; 1(4):2178-2183. Mast cells, which had been in liquid culture for a minimum of one week, were incubated with increasing concentrations (0.05-100 nM) of the anti-human cKIT Abs, NEG085 and 20376, or an isotype control IgG, in the presence of 1.6 nM rhSCF (Genscript, Cat #Z00400, Piscataway, NJ), for 48 h at 37° C. before the addition of the Caspase-Glo® 3/7 reagent (Promega, Cat #G8093, Madison, WI) to measure apoptosis. Following 30 min incubation at room temperature, luminescence was recorded on the BioTek® Synergy plate reader (BioTek, Winooski, VT).

[3] = biological target: T1, mouse cKIT (Mus musculus, UniProt P05532); assay: SPR (Biacore) affinity measurement; type: binding; settings: 25° C., 1:1 model
T1 construct: cKIT receptor extracellular domains (ECD) were diluted in a 2-fold series
T1 sequence (P05532 25-527 limits assumed): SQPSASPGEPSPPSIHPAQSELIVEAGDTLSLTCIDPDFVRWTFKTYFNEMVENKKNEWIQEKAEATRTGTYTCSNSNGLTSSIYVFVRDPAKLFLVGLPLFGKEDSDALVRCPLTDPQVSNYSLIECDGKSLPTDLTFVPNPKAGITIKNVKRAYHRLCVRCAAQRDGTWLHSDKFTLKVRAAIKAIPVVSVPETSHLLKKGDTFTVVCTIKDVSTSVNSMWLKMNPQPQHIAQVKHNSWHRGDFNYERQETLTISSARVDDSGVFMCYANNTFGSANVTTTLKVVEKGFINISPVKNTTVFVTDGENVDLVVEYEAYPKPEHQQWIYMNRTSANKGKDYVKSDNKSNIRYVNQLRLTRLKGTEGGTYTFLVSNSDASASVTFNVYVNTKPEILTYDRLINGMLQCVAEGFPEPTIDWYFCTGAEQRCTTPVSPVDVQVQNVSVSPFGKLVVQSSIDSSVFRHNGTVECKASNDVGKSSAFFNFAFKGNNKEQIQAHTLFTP
Method: (§1) Affinity of the antibodies to cKIT species orthologues and also to cKIT was determined using SPR technology using a Biacore® 2000 instrument (GE Healthcare, Pittsburgh, PA) and with CM5 sensor chips.
(§2) Briefly, HBS-P (0.01 M HEPES, pH 7.4, 0.15 M NaCl, 0.005% Surfactant P20) supplemented with 2% Odyssey® blocking buffer (Li-Cor Biosciences, Lincoln, NE) was used as the running buffer for all the experiments. The immobilization level and analyte interactions were measured by response unit (RU). Pilot experiments were performed to test and confirm the feasibility of the immobilization of the anti-human Fc antibody (Catalog number BR100839, GE Healthcare, Pittsburgh, PA) and the capture of the test antibodies.
(§3) For kinetic measurements, the experiments were performed in which the antibodies were captured to the sensor chip surface via the immobilized anti-human Fc antibody and the ability of the cKIT proteins to bind in free solution was determined. Briefly, 25 μg/ml of anti-human Fc antibody at pH 5 was immobilized on a CM5 sensor chip through amine coupling at flow rate of 5 μl/minute on all two flow cells to reach 10,500 RUs. 0.1-1 μg/ml of test antibodies were then injected at 10 μl/min for 1 minute. Captured levels of the antibodies were generally kept below 200 RUs. Subsequently, 3.125 −50 nM of cKIT receptor extracellular domains (ECD) were diluted in a 2-fold series and injected at a flow rate of 40 μl/min for 3 min over both reference and test flow cells. Table of tested ECDs is listed below (Table 6). Dissociation of the binding was followed for 10 min. After each injection cycle, the chip surface was regenerated with 3 M MgCl2 at 10 μl/min for 30 seconds.

[4] = biological target: T2, human cKIT (Homo sapiens, UniProt P10721); assay: SPR (Biacore) affinity measurement; type: binding; settings: 25° C., 1:1 model
T2 construct: Human cKIT tr. variant 2 , residues 26-520-TAG; made in house; host or cells: HEK293 derived cell line 293FS, transient transfection
T2 sequence (P10721 with tags, fused parts or gaps isoform P10721-2): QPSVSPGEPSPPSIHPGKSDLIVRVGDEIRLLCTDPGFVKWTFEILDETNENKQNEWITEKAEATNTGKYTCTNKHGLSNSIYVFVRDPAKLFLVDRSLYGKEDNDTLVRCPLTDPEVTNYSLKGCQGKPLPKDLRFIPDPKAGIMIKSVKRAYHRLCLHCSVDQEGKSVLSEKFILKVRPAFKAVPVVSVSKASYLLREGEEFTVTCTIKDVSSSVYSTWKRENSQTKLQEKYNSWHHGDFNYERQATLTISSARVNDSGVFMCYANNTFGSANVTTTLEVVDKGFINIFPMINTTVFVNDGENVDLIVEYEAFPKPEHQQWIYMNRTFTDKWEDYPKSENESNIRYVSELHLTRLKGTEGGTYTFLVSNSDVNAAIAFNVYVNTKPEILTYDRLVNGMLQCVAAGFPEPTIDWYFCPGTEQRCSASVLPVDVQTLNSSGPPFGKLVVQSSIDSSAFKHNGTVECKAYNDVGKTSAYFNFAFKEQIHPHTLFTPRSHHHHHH
Method: as §1, §2, §3

[5] = biological target: rat cKIT; assay: SPR (Biacore) affinity measurement; type: binding; settings: 25° C., 1:1 model
rat cKIT, sequence (as listed by the source): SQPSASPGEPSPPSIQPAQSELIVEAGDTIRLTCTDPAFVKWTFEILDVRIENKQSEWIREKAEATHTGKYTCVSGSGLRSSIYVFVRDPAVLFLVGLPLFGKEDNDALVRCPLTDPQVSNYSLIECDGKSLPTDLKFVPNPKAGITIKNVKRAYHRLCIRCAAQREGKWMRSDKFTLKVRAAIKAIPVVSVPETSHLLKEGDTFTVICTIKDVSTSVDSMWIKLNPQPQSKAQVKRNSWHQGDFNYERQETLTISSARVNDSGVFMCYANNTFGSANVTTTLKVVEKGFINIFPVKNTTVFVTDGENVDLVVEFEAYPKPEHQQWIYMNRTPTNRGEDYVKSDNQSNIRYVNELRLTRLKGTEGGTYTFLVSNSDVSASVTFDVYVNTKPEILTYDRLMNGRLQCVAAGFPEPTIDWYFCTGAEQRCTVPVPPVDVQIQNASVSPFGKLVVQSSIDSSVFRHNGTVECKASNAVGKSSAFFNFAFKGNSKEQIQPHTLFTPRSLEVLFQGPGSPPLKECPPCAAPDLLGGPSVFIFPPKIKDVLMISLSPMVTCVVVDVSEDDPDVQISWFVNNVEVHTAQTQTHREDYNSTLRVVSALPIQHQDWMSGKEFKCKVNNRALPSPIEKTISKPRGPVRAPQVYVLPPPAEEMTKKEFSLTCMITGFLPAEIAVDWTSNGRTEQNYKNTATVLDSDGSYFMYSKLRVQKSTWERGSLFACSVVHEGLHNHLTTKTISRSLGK
Method: as §1, §2, §3

B1: NEG085: anti-cKIT antibody of Table 3, VH SEQ ID NO 82, VL SEQ ID NO 91 (antibody, listed as Homo sapiens, V domains shown)
VH: EVQLVESGGGLVQPGGSLRLSCAASGFAFSGYYMAWVRQAPGKGLEWVANINYPGSSTYYLDSVKGRFTISRDNAKNSLYLQMNSLRAEDTAVYYCARGDYYGTTYWYFDVWGQGTTVTVSS
VL: DIQMTQSPSSLSASVGDRVTITCRASQSISSYLNWYQQKPGKAPKLLIYYTSRLQSGVPSRFSGSGSGTDFTLTISSLQPEDFATYYCQQGRRLWSFGGGTKVEIK
- time of bulk of cKIT internalization [1]: 15 min
- internalization of cKIT on human bone marrow cells ([1]; 0-240 min): mediate rapid internalization; also recorded: rapidly internalized
- apoptosis of primary human mast cells [2]: do not mediate primary human mast cell apoptosis; also recorded: do not lead to apoptosis
- Affinity mouse cKIT (nM) [3]: Not reactive
- Affinity human cKIT (nM) [4]: nanomolar level
- Affinity to rat cKIT (nM) [5]: Not reactive
